Series [1] addresses DnaC protein (hexamer assembled on DnaB) in the binary DnaB–DnaC complex (Escherichia coli, UniProt P0AEF0). Put plainly: fluorescence titration. Format: binding.
Series [2] addresses DnaB helicase;DnaC protein (Escherichia coli;Escherichia coli, UniProt P0ACB0;P0AEF0 1-471;1-245, |). The series is described as follows: fluorescence titration and sedimentation velocity of cofactor.
In another series the target is DnaB helicase (Escherichia coli, UniProt P0ACB0 1-471). The series is described as follows: fluorescence titration.
DnaB helicase, sequence (P0ACB0 whole entry): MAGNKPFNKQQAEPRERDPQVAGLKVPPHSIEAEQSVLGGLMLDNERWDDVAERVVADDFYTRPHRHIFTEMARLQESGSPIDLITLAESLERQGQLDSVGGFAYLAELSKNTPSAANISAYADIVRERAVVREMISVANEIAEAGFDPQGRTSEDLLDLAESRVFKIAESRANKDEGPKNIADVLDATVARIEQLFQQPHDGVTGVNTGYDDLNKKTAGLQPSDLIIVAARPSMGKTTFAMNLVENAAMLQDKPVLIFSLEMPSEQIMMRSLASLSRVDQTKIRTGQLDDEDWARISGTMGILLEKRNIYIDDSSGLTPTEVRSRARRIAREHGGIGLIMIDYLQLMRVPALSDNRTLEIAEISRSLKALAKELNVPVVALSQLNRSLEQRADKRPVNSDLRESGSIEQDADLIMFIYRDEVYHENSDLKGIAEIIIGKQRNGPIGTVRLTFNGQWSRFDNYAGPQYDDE

DnaB helicase;DnaC protein, sequence (P0ACB0 whole entry, chain 1 of 2): as the sequence (P0ACB0 whole entry) above
DnaB helicase;DnaC protein, sequence (P0AEF0 whole entry, chain 2 of 2): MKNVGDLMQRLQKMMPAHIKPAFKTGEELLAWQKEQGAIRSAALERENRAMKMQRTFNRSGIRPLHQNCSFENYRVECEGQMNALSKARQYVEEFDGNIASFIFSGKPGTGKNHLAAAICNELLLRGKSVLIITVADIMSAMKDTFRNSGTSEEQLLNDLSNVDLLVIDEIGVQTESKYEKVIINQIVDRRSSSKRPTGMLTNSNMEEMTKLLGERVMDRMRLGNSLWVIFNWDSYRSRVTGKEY
DnaC protein (hexamer assembled on DnaB) in the binary DnaB–DnaC complex, sequence (P0AEF0 whole entry): as the sequence (P0AEF0 whole entry, chain 2 of 2) above
DnaC protein (hexamer assembled on DnaB) in the binary DnaB–DnaC complex, sequence (P0ACB0 2-471 partner): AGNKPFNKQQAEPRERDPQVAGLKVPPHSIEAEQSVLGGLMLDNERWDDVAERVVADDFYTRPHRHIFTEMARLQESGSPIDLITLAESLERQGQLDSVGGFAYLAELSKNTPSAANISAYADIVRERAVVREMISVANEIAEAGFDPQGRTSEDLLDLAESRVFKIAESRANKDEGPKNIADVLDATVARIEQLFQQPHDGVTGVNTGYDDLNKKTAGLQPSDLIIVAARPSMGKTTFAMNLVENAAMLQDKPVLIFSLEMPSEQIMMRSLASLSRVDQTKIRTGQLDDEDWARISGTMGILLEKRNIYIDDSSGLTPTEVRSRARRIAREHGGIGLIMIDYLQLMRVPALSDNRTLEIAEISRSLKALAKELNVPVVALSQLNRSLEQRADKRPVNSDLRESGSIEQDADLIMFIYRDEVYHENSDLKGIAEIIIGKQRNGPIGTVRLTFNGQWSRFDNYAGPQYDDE

As for `CNc1ccccc1C(=O)O[C@H]1[C@@H](O)[C@H](n2cnc3c(N)ncnc32)O[C@@H]1CO[P@@](=O)(O)O[P@](=O)(O)OP(=O)(O)O` [MANT-ATP, 3′-O-(N-methylanthraniloyl)adenosine 5′-triphosphate], binding in series [1] was characterised by a dissociation constant (Kd) of 4.17 µM.

In the case of AAAAAAAAAAAAAAAAAAAA (ssDNA) [dA(pdA)19 (ssDNA 20-mer)], the binding result (in series [2]; with DnaB helicase) was “binds” in each case.

Values taken from paper PMC3072150 (Biochemistry, 2009).
